Assay results as given in IntAct's records for PubMed 24561201.

B1: ATP-sensitive inward rectifier potassium channel 10 (Homo sapiens), P78508 (parent)
chain: MTSVAKVYYSQTTQTESRPLMGPGIRRRRVLTKDGRSNVRMEHIADKRFLYLKDLWTTFIDMQWRYKLLLFSATFAGTWFLFGVVWYLVAVAHGDLLELDPPANHTPCVVQVHTLTGAFLFSLESQTTIGYGFRYISEECPLAIVLLIAQLVLTTILEIFITGTFLAKIARPKKRAETIRFSQHAVVASHNGKPCLMIRVANMRKSLLIGCQVTGKLLQTHQTKEGENIRLNQVNVTFQVDTASDSPFLILPLTFYHVVDETSPLKDLPLRSGEGDFELVLILSGTVESTSATCQVRTSYLPEEILWGYEFTPAISLSASGKYIADFSLFDQVVKVASPSGLRDSTVRYGDPEKLKLEESLREQAEKEGSALSVRISNV

Variants of: B1
Conditions: with MAGI1, A0A8I3NPD4
Chain of MAGI1, A0A8I3NPD4 (A0A8I3NPD4 entry or part of it): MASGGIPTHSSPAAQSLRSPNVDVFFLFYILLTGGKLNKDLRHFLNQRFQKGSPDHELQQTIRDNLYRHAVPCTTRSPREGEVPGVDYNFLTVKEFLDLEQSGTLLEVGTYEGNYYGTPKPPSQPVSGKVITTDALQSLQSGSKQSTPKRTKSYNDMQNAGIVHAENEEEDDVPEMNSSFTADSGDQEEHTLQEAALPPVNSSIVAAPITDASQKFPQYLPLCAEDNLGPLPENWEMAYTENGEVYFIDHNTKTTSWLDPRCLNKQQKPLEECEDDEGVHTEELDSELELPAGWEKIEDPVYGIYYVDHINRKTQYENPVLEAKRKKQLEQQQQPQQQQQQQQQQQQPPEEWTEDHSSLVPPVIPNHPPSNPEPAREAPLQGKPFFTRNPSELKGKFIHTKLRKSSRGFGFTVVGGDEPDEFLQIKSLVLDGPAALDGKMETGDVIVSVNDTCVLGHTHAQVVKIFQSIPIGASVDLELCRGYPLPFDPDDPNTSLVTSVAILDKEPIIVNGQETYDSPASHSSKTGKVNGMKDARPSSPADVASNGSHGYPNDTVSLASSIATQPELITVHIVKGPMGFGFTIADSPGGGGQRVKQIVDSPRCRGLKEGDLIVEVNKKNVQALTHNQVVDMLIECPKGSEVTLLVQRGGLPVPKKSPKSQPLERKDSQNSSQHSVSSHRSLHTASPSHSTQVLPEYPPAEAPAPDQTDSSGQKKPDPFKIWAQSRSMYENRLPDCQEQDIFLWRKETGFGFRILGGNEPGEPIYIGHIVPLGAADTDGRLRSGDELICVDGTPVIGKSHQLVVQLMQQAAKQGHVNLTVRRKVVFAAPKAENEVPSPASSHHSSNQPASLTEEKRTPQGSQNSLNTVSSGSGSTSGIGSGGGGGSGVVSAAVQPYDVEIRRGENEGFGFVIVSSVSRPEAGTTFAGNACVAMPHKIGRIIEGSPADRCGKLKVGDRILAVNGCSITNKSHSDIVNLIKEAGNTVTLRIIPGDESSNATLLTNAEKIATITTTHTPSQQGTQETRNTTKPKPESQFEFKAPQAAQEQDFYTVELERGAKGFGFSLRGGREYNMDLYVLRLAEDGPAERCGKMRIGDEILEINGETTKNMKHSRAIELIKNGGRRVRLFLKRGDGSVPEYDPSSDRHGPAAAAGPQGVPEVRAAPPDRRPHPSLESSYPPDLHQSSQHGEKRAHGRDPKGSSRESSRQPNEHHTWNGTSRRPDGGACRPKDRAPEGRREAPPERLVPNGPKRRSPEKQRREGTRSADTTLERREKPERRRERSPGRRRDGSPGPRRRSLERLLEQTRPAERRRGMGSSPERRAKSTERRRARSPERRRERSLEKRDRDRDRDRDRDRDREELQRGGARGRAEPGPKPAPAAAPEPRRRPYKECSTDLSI

| Variant | effect of a mutation on the interaction |
| --- | --- |
| MTSVAKVYYSQTTQTESRPLMGPGIRRRRVLTKDGRSNVRMEHIADKRFLYLKDLWTTFIDMQWRYKLLLFSATFAGTWFLFGVVWYLVAVAHGDLLELDPPANHTPCVVQVHTLTGAFLFSLESQTTIGYGFRYISEECPLAIVLLIAQLVLTTILEIFITGTFLVKIARPKKRAETIRFSQHAVVASHNGKPCLMIRVANMRKSLLIGCQVTGKLLQTHQTKEGENIRLNQVNVTFQVDTASDSPFLILPLTFYHVVDETSPLKDLPLRSGEGDFELVLILSGTVESTSATCQVRTSYLPEEILWGYEFTPAISLSASGKYIADFSLFDQVVKVASPSGLRDSTVRYGDPEKLKLEESLREQAEKEGSALSVRISNV [A167V] | decreasing interaction |
